Measured values as given in US20230015590A1 (JIANGSU ALPHAMAB BIOPHARMACEUTICALS, published 2023).

Biological target: T1, human PD-L1 (WT) (human, UniProt Q9NZQ7 19-127, limits assumed)
T1 construct: also called human PD-L1 N-terminal IgV domain
Assay: affinity measurement, method not stated

T1 sequence (Q9NZQ7 19-127 limits assumed): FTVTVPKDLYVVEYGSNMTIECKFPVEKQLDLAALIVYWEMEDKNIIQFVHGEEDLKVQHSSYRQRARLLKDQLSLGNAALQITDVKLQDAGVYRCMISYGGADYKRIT

Kd: 5.92 nM
B1: PD-L1 ISVD-9 (VHH)
VHH: QVQLVESGGGLVQPGGSLRLSCAASGKMSSRRCMAWFRQAPGKERERVAKLLTTSGSTYLADSVKGRFTISRDNSKNTVYLQMNSLRAEDTAVYYCAADSFEDPTCTLVTSSGAFQYWGQGTLVTVSS
notes: also called ISVD specific for PD-L1; aPDL1.9
